The results in this text go back to patent US20100068742.

In data set [1] the target is GST-ezrin (amino acids 1-586), P15311.
Data set [2] concerns the target T1, Nictide (RLGWWRFYTLRRARQGNTKQR).
T1 chain: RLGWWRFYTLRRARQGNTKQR

The target in data set [3] is T2, chicken maltose binding protein-MYPT (amino acids 714-1004), Q90623.
T2 chain: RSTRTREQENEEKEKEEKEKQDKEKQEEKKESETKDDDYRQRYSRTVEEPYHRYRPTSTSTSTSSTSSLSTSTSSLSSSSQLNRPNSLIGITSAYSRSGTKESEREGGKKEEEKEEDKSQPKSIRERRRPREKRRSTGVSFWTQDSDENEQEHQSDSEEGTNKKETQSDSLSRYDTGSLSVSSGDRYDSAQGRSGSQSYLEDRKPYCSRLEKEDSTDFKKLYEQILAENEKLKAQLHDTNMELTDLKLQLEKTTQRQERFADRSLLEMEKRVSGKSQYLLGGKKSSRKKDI

Data set [4] addresses LRRKtide with +1Leu mutated to Ala.
The target of data set [5] is LRRKtide with -2Tyr mutated to Arg.

Chain of GST-ezrin (amino acids 1-586), P15311 (P15311 whole entry, the tested form may be a part): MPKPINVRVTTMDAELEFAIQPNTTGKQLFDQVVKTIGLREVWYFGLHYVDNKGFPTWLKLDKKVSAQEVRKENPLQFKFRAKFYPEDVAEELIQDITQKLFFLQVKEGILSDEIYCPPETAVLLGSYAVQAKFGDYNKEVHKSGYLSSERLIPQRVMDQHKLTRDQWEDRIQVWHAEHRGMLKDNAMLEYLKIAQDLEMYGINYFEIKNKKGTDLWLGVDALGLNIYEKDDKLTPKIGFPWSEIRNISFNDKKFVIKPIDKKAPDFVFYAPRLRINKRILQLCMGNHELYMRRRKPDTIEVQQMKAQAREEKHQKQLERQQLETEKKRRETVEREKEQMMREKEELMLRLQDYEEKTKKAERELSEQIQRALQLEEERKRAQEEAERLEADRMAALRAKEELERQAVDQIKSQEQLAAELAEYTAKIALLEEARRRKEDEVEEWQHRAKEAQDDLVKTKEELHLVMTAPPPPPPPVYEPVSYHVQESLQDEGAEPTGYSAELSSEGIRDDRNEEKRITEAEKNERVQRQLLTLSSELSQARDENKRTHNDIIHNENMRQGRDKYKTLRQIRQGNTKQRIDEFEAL

B1: GST-LRRK2 1326-2527 [wild type] (protein)
chain: LKKAVPYNRMKLMIVGNTGSGKTTLLQQLMKTKKSDLGMQSATVGIDVKDWPIQIRDKRKRDLVLNVWDFAGREEFYSTHPHFMTQRALYLAVYDLSKGQAEVDAMKPWLFNIKARASSSPVILVGTHLDVSDEKQRKACMSKITKELLNKRGFPAIRDYHFVNATEESDALAKLRKTIINESLNFKIRDQLVVGQLIPDCYVELEKIILSERKNVPIEFPVIDRKRLLQLVRENQLQLDENELPHAVHFLNESGVLLHFQDPALQLSDLYFVEPKWLCKIMAQILTVKVEGCPKHPKGIISRRDVEKFLSKKRKFPKNYMSQYFKLLEKFQIALPIGEEYLLVPSSLSDHRPVIELPHCENSEIIIRLYEMPYFPMGFWSRLINRLLEISPYMLSGRERALRPNRMYWRQGIYLNWSPEAYCLVGSEVLDNHPESFLKITVPSCRKGCILLGQVVDHIDSLMEEWFPGLLEIDICGEGETLLKKWALYSFNDGEEHQKILLDDLMKKAEEGDLLVNPDQPRLTIPISQIAPDLILADLPRNIMLNNDELEFEQAPEFLLGDGSFGSVYRAAYEGEEVAVKIFNKHTSLRLLRQELVVLCHLHHPSLISLLAAGIRPRMLVMELASKGSLDRLLQQDKASLTRTLQHRIALHVADGLRYLHSAMIIYRDLKPHNVLLFTLYPNAAIIAKIADYGIAQYCCRMGIKTSEGTPGFRAPEVARGNVIYNQQADVYSFGLLLYDILTTGGRIVEGLKFPNEFDELEIQGKLPDPVKEYGCAPWPMVEKLIKQCLKENPQERPTSAQVFDILNSAELVCLTRRILLPKNVIVECMVATHHNSRNASIWLGCGHTDRGQLSFLDLNTEGYTSEEVADSRILCLALVHLPVEKESWIVSGTQSGTLLVINTEDGKKRHTLEKMTDSVTCLYCNSFSKQSKQKNFLLVGTADGKLAIFEDKTVKLKGAAPLKILNIGNVSTPLMCLSESTNSTERNVMWGGCGTKIFSFSNDFTIQKLIETRTSQLFSYAAFSDSNIITVVVDTALYIAKQNSPVVEVWDKKTEKLCGLIDCVHFLREVMVKENKESKHKMSYSGRVKTLCLQKNTALWIGTGGGHILLLDLSTRRLIRVIYNFCNSVRVMMTAQLGSLKNVMLVLGYNRKNTEGTQKQKEIQSCLTVWDINLPHEVQNLEKHIEVRKELAEKMRRTSVE
Take B1: the “protein substrate phosphorylation (32P autoradiography)” value (“protein substrate phosphorylation” for short) in data set [1] is given as “LRRK2 phosphorylated ezrin”. In addition, in data set [2], the “Km of peptide phosphorylation” value is given as “a similar Km” and the “fold decrease of Vmax against LRRK2[G2019S]” value is ~2-fold lower Vmax. In addition, the “protein substrate phosphorylation” value in data set [3] is recorded as “did not phosphorylate MYPT”.

B2: rat ROCK2 (amino acids 2-543) (protein)
chain: SRPPPTGKMPGAPEAAAGDGAGAGRQRKLEALIRDPRSPINVESLLDGLNSLVLDLDFPALRKNKNIDNFLNRYEKIVKKIRGLQMKAEDYDVVKVIGRGAFGEVQLVRHKASQKVYAMKLLSKFEMIKRSDSAFFWEERDIMAFANSPWVVQLFCAFQDDRYLYMVMEYMPGGDLVNLMSNYDVPEKWAKFYTAEVVLALDAIHSMGLIHRDVKPDNMLLDKHGHLKLADFGTCMKMDETGMVHCDTAVGTPDYISPEVLKSQGGDGYYGRECDWWSVGVFLFEMLVGDTPFYADSLVGTYSKIMDHKNSLCFPEDTEISKHAKNLICAFLTDREVRLGRNGVEEIKSASFFKNDQWNWDNIRETAAPVVPELSSDIDSSNFDDIEDDKGDVETFPIPKAFVGNQLPFIGFTYFRENLLLSDSPPCRENDAIQTRKSEESQEIQKKLYALEEHLSSEVQAKEELEQKCKSINTRLEKTAKELEEEITFRKNVESTLRQLEREKALLQHKNAEYQRKADHEADKKRNLENDVNSLKDQLEDL
Regarding B2, the “protein substrate phosphorylation” value in data set [1] is reported as “but barely ezrin”; in data set [3], “ROCK2 phosphorylated MYPT”. Further, in data set [4], the peptide phosphorylation entry is “abolished phosphorylation by ROCK2”. Besides, the “fold decrease of Km against wild type LRRKtide” value in data set [5] is “decreased the Km value over 60-fold”. In addition, in data set [5], the “fold increase of Vmax against wild type LRRKtide” value is listed as “increased the Vmax over 5-fold”.
